# Data from article PMC7321154, “Pharmacokinetic Properties of ^68Ga-labelled Folic Acid Conjugates: Improvement Using HEHE Tag” (Molecules, 2020).
# Numbered stars: 1 amine (or outer) side, 2 acyl side, 3 side chain; on linkers, the order of the positions; unused ones are H or OH. Peptide text beside a SMILES is read from it. * marks the point of attachment. NODAGA = O=C(O)CN1CCN(CC(=O)O)CCN(C(CCC(=O)*)C(=O)O)CC1; Pteroyl = Nc1nc2ncc(CNc3ccc(C(=O)*)cc3)nc2c(=O)[nH]1; γGlu = O=C(O)[C@H](CCC(=O)[*:2])N[*:1]
# What was measured:
# in vitro = in vitro ADME; conditions: human, plasma
# Protocol: The plasma stability of [^68Ga]Ga-FA-I and [^68Ga]Ga-FA-II was determined in human plasma in vitro.
# in vivo [1] = assay: in vivo; set-up: species or system Wistar rats; conditions: Wistar, rat, iv, total radioactivity
# Protocol: Normal biodistribution studies were carried out in healthy Wistar rats. Animals were grouped (N = 5/group) and injected with 10−12 MBq/100 μL of each ^68Ga-NODAGA-folate conjugate into the tail vein. Nonspecific uptake in FR-positive organs (e.g., kidneys) was determined by 5 min of folic acid pre-injection (36 μM, 100 μL) in PBS pH 7.4. At preselected time points of (30, 60, 90, 120 min for rats and 30, 60 min for mice) animals were sacrificed. The organs of interest were collected, blotted dry, weighed, and counted using a WIZARD^2 automatic γ-counter (PerkinElmer). The results are expressed as the percentage of injected activity dose per gram (% ID/g ± SD) for each organ/tissue.
# in vivo [2] = assay: in vivo; set-up: species or system BALB/c nude mice; conditions: female, BALB/c nude, mouse, iv, total radioactivity; for tissue to tissue ratio at 0.5 h / tissue to tissue ratio at 1 h: Differential uptake ratio (DUR)
# Protocol: For the experimental tumor models athymic female BALB/c nude mice (4−5 weeks old, 18−20 g) were subcutaneously inoculated in the right flank with suspended 2 × 10^6 KB cells (150 μL, Opti-MEM (Gibco, Thermo Fisher Scientific, Waltham, MA, USA) and 50% Matrigel (Becton Dickinson, Franklin Lakes, NJ, USA). Tumors were allowed to grow for 12−16 days (tumor weight 500−900 mg). Animals were grouped (N = 3–5/group) and injected with 10−12 MBq/100 μL of each ^68Ga-NODAGA-folate conjugate into the tail vein. At preselected time points of (30, 60, 90, 120 min for rats and 30, 60 min for mice) animals were sacrificed. The organs of interest were collected, blotted dry, weighed, and counted using a WIZARD^2 automatic γ-counter (PerkinElmer). The results are expressed as the percentage of injected activity dose per gram (% ID/g ± SD) for each organ/tissue.
smiles,measurement,setting,value
"Nc1nc2ncc(CNc3ccc(C(=O)N[C@@H](CCC(=O)N[C@@H](CCCCNC(=O)CCC(C(=O)O)N4CCN(CC(=O)O)CCN(CC(=O)O)CC4)C(=O)N[C@@H](Cc4c[nH]cn4)C(=O)N[C@@H](CCC(=O)O)C(=O)N[C@@H](Cc4c[nH]cn4)C(=O)N[C@@H](CCC(=O)O)C(=O)O)C(=O)O)cc3)nc2c(=O)[nH]1 (stereo partly shown) [[^68Ga]Ga-FA-II, metal not drawn] ({Pteroyl-γGlu}-K(NODAGA)HEHE-OH)",remaining at 3 h,in vitro,> 99%
same,tissue uptake at 1 h,in vivo [1],4.27 ± 0.93 %ID/g
same,tissue uptake at 0.5 h,in vivo [1]; accumulation in blood,0.28 ± 0.03 %ID/g
same,tissue uptake at 1 h,in vivo [1]; accumulation in blood,0.22 ± 0.06 %ID/g
same,tissue uptake at 1.5 h,in vivo [1]; accumulation in blood,0.09 ± 0.01 %ID/g
same,tissue uptake at 2 h,in vivo [1]; accumulation in blood,0.06 ± 0.02 %ID/g
same,tissue uptake at 0.5 h,in vivo [1]; accumulation in brain,0.04 ± 0.01 %ID/g
same,tissue uptake at 1 h,in vivo [1]; accumulation in brain,0.02 ± 0.01 %ID/g
same,tissue uptake at 1.5 h,in vivo [1]; accumulation in brain,0.02 ± 0.01 %ID/g
same,tissue uptake at 2 h,in vivo [1]; accumulation in brain,0.01 ± 0.01 %ID/g
same,tissue uptake at 0.5 h,in vivo [1]; accumulation in heart,0.27 ± 0.07 %ID/g
same,tissue uptake at 1 h,in vivo [1]; accumulation in heart,0.16 ± 0.08 %ID/g
same,tissue uptake at 1.5 h,in vivo [1]; accumulation in heart,0.1 ± 0.01 %ID/g
same,tissue uptake at 2 h,in vivo [1]; accumulation in heart,0.08 ± 0.01 %ID/g
same,tissue uptake at 0.5 h,in vivo [1]; accumulation in kidneys,4.03 ± 0.94 %ID/g
same,tissue uptake at 1 h,in vivo [1]; accumulation in kidneys,4.64 ± 1.8 %ID/g
same,tissue uptake at 1.5 h,in vivo [1]; accumulation in kidneys,4.42 ± 1.27 %ID/g
same,tissue uptake at 2 h,in vivo [1]; accumulation in kidneys,4.34 ± 0.18 %ID/g
same,tissue uptake at 0.5 h,in vivo [1]; accumulation in liver,0.18 ± 0.06 %ID/g
same,tissue uptake at 1 h,in vivo [1]; accumulation in liver,0.12 ± 0.06 %ID/g
same,tissue uptake at 1.5 h,in vivo [1]; accumulation in liver,0.07 ± 0.01 %ID/g
same,tissue uptake at 2 h,in vivo [1]; accumulation in liver,0.05 ± 0.01 %ID/g
same,tissue uptake at 0.5 h,in vivo [1]; accumulation in lungs,0.28 ± 0.06 %ID/g
same,tissue uptake at 1 h,in vivo [1]; accumulation in lungs,0.24 ± 0.07 %ID/g
same,tissue uptake at 1.5 h,in vivo [1]; accumulation in lungs,0.12 ± 0.02 %ID/g
same,tissue uptake at 2 h,in vivo [1]; accumulation in lungs,0.11 ± 0.02 %ID/g
same,tissue uptake at 1 h,in vivo [1]; accumulation in muscle,0.06 ± 0.01 %ID/g
same,tissue uptake at 1.5 h,in vivo [1]; accumulation in muscle,0.04 ± 0.01 %ID/g
same,tissue uptake at 2 h,in vivo [1]; accumulation in muscle,0.04 ± 0.01 %ID/g
same,tissue to tissue ratio at 0.5 h,in vivo [2]; Tumor-to-blood,1.6 ± 0.5
same,tissue to tissue ratio at 1 h,in vivo [2]; Tumor-to-blood,6.1 ± 2.5
same,tissue to tissue ratio at 0.5 h,in vivo [2]; Tumor-to-kidneys,0.39 ± 0.18
same,tissue to tissue ratio at 1 h,in vivo [2]; Tumor-to-kidneys,0.79 ± 0.28
same,tissue to tissue ratio at 0.5 h,in vivo [2]; Tumor-to-muscle,7.1 ± 2.8
same,tissue to tissue ratio at 1 h,in vivo [2]; Tumor-to-muscle,28.9 ± 13.7
same,tissue uptake at 0.5 h,in vivo [2]; accumulation in bladder,1.46 ± 0.53 %ID/g
same,tissue uptake at 1 h,in vivo [2]; accumulation in bladder,0.96 ± 0.46 %ID/g
same,tissue uptake at 0.5 h,in vivo [2]; accumulation in brain,0.09 ± 0.03 %ID/g
same,tissue uptake at 1 h,in vivo [2]; accumulation in brain,0.1 ± 0.03 %ID/g
same,tissue uptake at 0.5 h,in vivo [2]; accumulation in intestines,0.46 ± 0.15 %ID/g
same,tissue uptake at 1 h,in vivo [2]; accumulation in intestines,0.45 ± 0.13 %ID/g
same,tissue uptake at 0.5 h,in vivo [2]; accumulation in kidneys,4.47 ± 0.97 %ID/g
same,tissue uptake at 1 h,in vivo [2]; accumulation in kidneys,4.64 ± 0.26 %ID/g
same,tissue uptake at 0.5 h,in vivo [2]; accumulation in liver,0.51 ± 0.13 %ID/g
same,tissue uptake at 1 h,in vivo [2]; accumulation in liver,0.27 ± 0.08 %ID/g
same,tissue uptake at 0.5 h,in vivo [2]; accumulation in muscle,0.24 ± 0.04 %ID/g
